The target in the assay is BamD_(R49C) (E. coli) (UniProt P0AC02). As to the kind of experiment: cross-linking.

^MBP−76EspP_(D1218C) yielded a percent crosslinked (plateau after oxidation with 4-DPS) of 40% and a percent crosslinked spontaneously (Ox-, no oxidant) of 10%.

The values above are taken from publication PMC8985213.
